Test results published in article PMC13100509, “A milestone in C4 carbon concentration mechanism evolution: structural remodeling of NADP-malic enzyme in Poaceae” (Molecular Biology and Evolution, 2026).
Numbering of substitutions follows the chain as printed. Names may count otherwise. “And” between values parts separate entries of the source, which are not always exact repeats. Equal values may be shown once.

Tests used:
[1] = target: C4 + 15 variant of maize C4-NADP-ME (maize (Zea mays)) (UniProt P16243); experiment: native gel or EMSA; native PAGE (6% or 7%) of purified recombinant proteins, 100 V, 4 °C; Coomassie staining or in-gel NADP-ME activity assay; oligomeric state from mobility against native markers
[2] = target: Cyt1-NADP-ME from maize extracts (maize (endogenous in maize etiolated leaves and roots)); experiment: native gel or EMSA; native PAGE (7%) of maize extracts of etiolated leaves and roots; in-gel NADP-ME activity assay, active bands excised and identified by mass spectrometry; mobility compared with the recombinant proteins
[3] = target: Cyt2-NADP-ME from maize extracts (maize (endogenous in maize etiolated leaves and roots)); experiment: as above
[4] = target: maize Cyt2-NADP-ME, recombinant wild type (maize (Zea mays)); experiment: native gel or EMSA; native PAGE (6% or 7%) of purified recombinant proteins, 100 V, 4 °C; Coomassie staining or in-gel NADP-ME activity assay; oligomeric state from mobility against native markers
[5] = target: maize nonC4-NADP-malic enzyme, recombinant wild type (maize (Zea mays)); experiment: AUC; sedimentation velocity of recombinant proteins; 20 mM Tris-HCl pH 7.0 or 8.0, 5 mM MgCl2; 1.1 mg/ml (16 uM); 20 °C, 35,000 rpm; c(s) model in SEDFIT; self-association, dimers and tetramers
[6] = target: maize nonC4-NADP-malic enzyme, recombinant wild type (maize (Zea mays)); experiment: cryo-EM structure; single-particle cryo-EM of His-tagged proteins, 0.2 to 0.5 mg/ml, 20 mM Tris-HCl, 5 mM MgCl2, 40 mM pyruvate, 2 mM NADP, pH 8.0; oligomeric state from the numbers of particles
[7] = target: maize nonC4-NADP-malic enzyme, recombinant wild type (maize (Zea mays)); experiment: native gel or EMSA; native PAGE (6% or 7%) of purified recombinant proteins, 100 V, 4 °C; Coomassie staining or in-gel NADP-ME activity assay; oligomeric state from mobility against native markers
[8] = target: maize nonC4-NADP-malic enzyme, recombinant wild type (maize (Zea mays)); experiment: as above; remark: listed apart in the source
[9] = target: nonC4I148F mutant of maize nonC4-NADP-ME (maize (Zea mays)); experiment: as above
[10] = target: nonC4N172D mutant of maize nonC4-NADP-ME (maize (Zea mays)); experiment: as above
[11] = target: nonC4R171T mutant of maize nonC4-NADP-ME (maize (Zea mays)); experiment: as above
[12] = target: nonC4R208G mutant of maize nonC4-NADP-ME (maize (Zea mays)); experiment: as above
[13] = target: nonC4Δ15 variant of maize nonC4-NADP-ME (maize (Zea mays)); experiment: as above
[14] = target: nonC4Δ15 with I148F (maize (Zea mays)); experiment: as above
[15] = target: nonC4Δ15 with N172D (maize (Zea mays)); experiment: as above
[16] = target: nonC4Δ15 with R171T (maize (Zea mays)); experiment: as above
[17] = target: nonC4Δ15 with R208G (maize (Zea mays)); experiment: as above
[18] = target: plastidic nonC4-NADP-ME from maize extracts (maize (endogenous in maize etiolated leaves and roots)); experiment: native gel or EMSA; native PAGE (7%) of maize extracts of etiolated leaves and roots; in-gel NADP-ME activity assay, active bands excised and identified by mass spectrometry; mobility compared with the recombinant proteins
[19] = target: the molecule itself; experiment: AUC; sedimentation velocity of recombinant proteins; 20 mM Tris-HCl pH 7.0 or 8.0, 5 mM MgCl2; 1.1 mg/ml (16 uM); 20 °C, 35,000 rpm; c(s) model in SEDFIT; self-association, dimers and tetramers
[20] = target: the molecule itself; experiment: native gel or EMSA; native PAGE (6% or 7%) of purified recombinant proteins, 100 V, 4 °C; Coomassie staining or in-gel NADP-ME activity assay; oligomeric state from mobility against native markers
[21] = target: the molecule itself; experiment: native gel or EMSA; native PAGE (7%) of maize extracts of etiolated leaves and roots; in-gel NADP-ME activity assay, active bands excised and identified by mass spectrometry; mobility compared with the recombinant proteins
purified protein = substrate: O=C(O)C[C@H](O)C(=O)O; experiment: purified protein; assay type: biochemical, Zea mays; settings: pH 8.0, 25 °C, 0.5 mM NADP, 10 mM MgCl2

C4 + 15 variant of maize C4-NADP-ME (from UniProt P16243 63-636) (enzyme)
stoichiometry N [1]: 4

Cyt1-NADP-ME from maize extracts (enzyme)
stoichiometry N [2]: 4

Cyt2-NADP-ME from maize extracts (enzyme)
stoichiometry N [3]: 4

maize Cyt2-NADP-ME, recombinant wild type (enzyme)
stoichiometry N [4]: 4

maize nonC4-NADP-malic enzyme, recombinant wild type
stoichiometry N [5]: 2 and 4 | percent tetramers [6]: 10% | stoichiometry N [6]: 2 | stoichiometry N [7]: 2 | stoichiometry N [8]: 4

nonC4I148F mutant of maize nonC4-NADP-ME (enzyme)
stoichiometry N [9]: 2

nonC4N172D mutant of maize nonC4-NADP-ME (enzyme)
stoichiometry N [10]: 4

nonC4R171T mutant of maize nonC4-NADP-ME (enzyme)
stoichiometry N [11]: 2 and 4

nonC4R208G mutant of maize nonC4-NADP-ME (enzyme)
stoichiometry N [12]: 4

nonC4Δ15 variant of maize nonC4-NADP-ME (enzyme)
stoichiometry N [13]: 2

nonC4Δ15 with I148F (enzyme)
stoichiometry N [14]: 4 and 2

nonC4Δ15 with N172D (enzyme)
stoichiometry N [15]: 4

nonC4Δ15 with R171T (enzyme)
stoichiometry N [16]: 4 and 2

nonC4Δ15 with R208G (enzyme)
stoichiometry N [17]: 4

plastidic nonC4-NADP-ME from maize extracts (enzyme)
stoichiometry N [18]: 2

B1: maize C4-NADP-malic enzyme, recombinant wild type (enzyme, maize (Zea mays), UniProt P16243 63-636, looked up)
chain: MVSNAETETEKEQEEAAAASEELPVMPWATSVASGYTLLRDPHHNKGLAFTEEERDGHYLRGLLPPAVLSQELQIKKFMNTLRQYQTPLQRYIAMMNLQETDERLFYKLLIDNVVELLPFVYTPTVGEACQKYGSIFGRPQGLYVSLKDKGKVLEVLRNWPHRNIQVICVTDGERILGLGDLGCQGMGIPVGKLALYTALGGVDPSVCLPITIDVGTNNEFLLNDEFYIGLRQKRATGEEYDELIEEFMSAVKQFYGEKVLIQFEDFANHNAFDLLEKYSKSHLVFNDDIQGTASVVLAGLLAALKMVGGTLAEQTYLFLGAGEAGTGIAELIALEISKQTNAPIEECRKKVWLVDSKGLIVDSRKGSLQPFKKPWAHEHEPLKTLYDAVQSIKPTVLIGTSGVGRTFTKEIIEAMSSFNERPIIFSLSNPTSHSECTAEQAYTWSQGRSIFASGSPFAPVEYEGKTFVPGQSNNAYIFPGLGLGLVISGAVRVHEDMLLAASKALADQATQDNFEKGSIFPPFTSIRKISAHIAAAVAGKAYELGLATRLPPPSDLVKYAENCMYTPVYRNYR
notes: C4-NADP-malic enzyme (ZmC4-NADP-ME), plastidic C4 isoform of maize; construct of Alvarez et al. 2019; Vector pET16b::ZmC4-NADP-ME (Alvarez et al. 2019); also called C4-NADP-ME; ZmC4-NADP-ME; source: E. coli Rosetta2 (DE3) or ArcticExpress (DE3), purified (Ni-NTA)
stoichiometry N [19]: 4

B2: C4Y632F mutant of maize C4-NADP-ME (enzyme, maize (Zea mays), UniProt P16243 63-636, looked up)
chain: B1 chain with Y570F
notes: C4-NADP-malic enzyme (ZmC4-NADP-ME), plastidic C4 isoform of maize; source: E. coli Rosetta2 (DE3) or ArcticExpress (DE3), purified (Ni-NTA)
binding result [20]: binds

B3: C4-NADP-ME from maize extracts (enzyme, UniProt P16243 63-636, looked up)
chain: B1 chain
notes: C4-NADP-malic enzyme, plastidic C4 isoform of maize, identified by mass spectrometry in an active band of a native gel; source: endogenous, extracts of maize etiolated leaves and roots
stoichiometry N [21]: 4

B4: C4N15GR variant of maize C4-NADP-ME (enzyme)
chain: AAGVVVEDHYGEDSASEELPVMPWATSVASGYTLLRDPHHNKGLAFTEEERDGHYLRGLLPPAVLSQELQIKKFMNTLRQYQTPLQRYIAMMNLQETDERLFYKLLIDNVVELLPFVYTPTVGEACQKYGSIFRRPQGLYVSLKDKGKVLEVLRNWPHRNIQVICVTDGERILGLGDLGCQGMGIPVGKLALYTALGGVDPSVCLPITIDVGTNNEKLLNDEFYIGLRQKRATGEEYDELIEEFMSAVKQFYGEKVLIQFEDFANHNAFDLLEKYSKSHLVFNDDIQGTASVVLAGLLAALKMVGGTLAEQTYLFLGAGEAGTGIAELIALEISKQTNAPIEECRKKVWLVDSKGLIVDSRKGSLQPFKKPWAHEHEPLKTLYDAVQSIKPTVLIGTSGVGRTFTKEIIEAMSSFNERPIIFSLSNPTSHSECTAEQAYTWSQGRSIFASGSPFAPVEYEGKTFVPGQSNNAYIFPGLGLGLVISGAVRVHEDMLLAASKALADQATQDNFEKGSIFPPFTSIRKISAHIAAAVAAKAYELGLATRLPPPSDLVKYAENCMYTPVYRNYR
stoichiometry N [20]: 2

B5: C4-NADP-ME (Zea mays) (protein)
chain: AMVSNAETETEKEQEEAAAASEELPVMPWATSVASGYTLLRDPHHNKGLAFTEEERDGHYLRGLLPPAVLSQELQIKKFMNTLRQYQTPLQRYIAMMNLQETDERLFYKLLIDNVVELLPFVYTPTVGEACQKYGSIFGRPQGLYVSLKDKGKVLEVLRNWPHRNIQVICVTDGERILGLGDLGCQGMGIPVGKLALYTALGGVDPSVCLPITIDVGTNNEFLLNDEFYIGLRQKRATGEEYDELIEEFMSAVKQFYGEKVLIQFEDFANHNAFDLLEKYSKSHLVFNDDIQGTASVVLAGLLAALKMVGGTLAEQTYLFLGAGEAGTGIAELIALEISKQTNAPIEECRKKVWLVDSKGLIVDSRKGSLQPFKKPWAHEHEPLKTLYDAVQSIKPTVLIGTSGVGRTFTKEIIEAMSSFNERPIIFSLSNPTSHSECTAEQAYTWSQGRSIFASGSPFAPVEYEGKTFVPGQSNNAYIFPGLGLGLVISGAVRVHEDMLLAASKALADQATQDNFEKGSIFPPFTSIRKISAHIAAAVAGKAYELGLATRLPPPSDLVKYAENCMYTPVYRNYR
notes: mature protein without transit peptide, E. coli, pET16b His-tag (Factor Xa site); homotetramer about 250 kDa
Km (purified protein): 170 ± 20 µM | kcat (purified protein): 67.5 ± 1.4 s⁻¹

B6: C4-NADP-ME (Zea mays; G200R) (protein)
chain: B5 chain with G139R
notes: as for B5
Km (purified protein): 2450 ± 450 µM | kcat (purified protein): 21.6 ± 0.8 s⁻¹
